Source: US20050084491A1 (Janssen / Centocor, published 2005)

Experiments:
CNTO95 [1] = assay: flow cytometry: CNTO95 (10 ug/ml) staining of A375.S2 cells after preincubation with peptide at 200 ug/ml
CNTO95 [2] = assay: flow cytometry: CNTO95 (10 ug/ml) staining of A375.S2 cells after preincubation with peptide at 100 ug/ml
CNTO95 [3] = assay: isothermal titration calorimetry, peptide titrated into 3 µM CNTO95, 25° C. (commented: No binding)
CNTO95 [4] = assay: isothermal titration calorimetry, peptide titrated into 3 µM CNTO95, 25° C.
CNTO95 [5] = assay: competitive ELISA: peptide preincubated with CNTO95, CNTO95 binding to αVβ3-coated plate detected

Binder	Mean Channel Fluorescence (CNTO95 [1])	Mean Channel Fluorescence (CNTO95 [2])	ΔH (CNTO95 [3]) [kcal/mol]	Kd (CNTO95 [4]) [µM]	Molar ratio (Peptide/CNTO95) (CNTO95 [4])	ΔH (CNTO95 [4]) [kcal/mol]	EC50 (CNTO95 [5]) [µM]
DYRTAADTTGLQ (synthetic peptide with the D564-Q575 segment of the mature alphaV chain; also called alphaV segment; native peptide) [CEN2322]	92.4	90.5	-0.325	–	–	–	–
DFRSWWDLSGYR (synthetic linear peptide, phage-display consensus (mimotope); also called 12p1; 12pG1) [CEN2319]	11.6	12.3	–	4.2	2.2	-12	5.8
DFRSWWDLEE (synthetic peptide made from the consensus formula; C-terminal glutamates added for solubility) [CEN2553]	9.41	12.9	–	–	–	–	–
